Source: article PMC3783163, “Attachment site recognition and regulation of directionality by the serine integrases”

T1: LI integrase CTD (Listeria innocua prophage (CLIP 11262; …, UniProt Q928V6 133-452)
T1 sequence: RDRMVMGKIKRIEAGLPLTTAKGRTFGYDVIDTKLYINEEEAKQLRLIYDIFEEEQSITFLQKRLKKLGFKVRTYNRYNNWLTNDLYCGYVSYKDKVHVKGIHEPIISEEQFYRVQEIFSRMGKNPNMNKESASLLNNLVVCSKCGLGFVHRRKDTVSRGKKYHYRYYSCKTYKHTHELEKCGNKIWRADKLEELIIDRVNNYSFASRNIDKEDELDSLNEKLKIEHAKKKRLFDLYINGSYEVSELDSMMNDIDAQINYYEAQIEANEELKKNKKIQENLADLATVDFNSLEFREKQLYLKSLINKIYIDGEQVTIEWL


Key:
[1] = test system: LI integrase WT (Listeria innocua prophage (CLIP 11262; cloned from ATCC BAA-680D genomic DNA)); experiment: EMSA; conditions: EMSA: 20 mM Tris-HCl pH 7.4, 150 mM KCl, 2 mM DTT, 25 ug/ml BSA, 25 ug/ml salmon sperm DNA, 5% glycerol, ~1 nM DNA, 30 min at 30 C; 6% PAGE Tris-glycine pH …
[2] = test system: LI integrase ΔZD (Listeria innocua prophage (CLIP 11262; cloned from ATCC BAA-680D genomic DNA)); experiment: EMSA; conditions: EMSA: 20 mM Tris-HCl pH 7.4, 150 mM KCl, 2 mM DTT, 25 ug/ml BSA, 25 ug/ml salmon sperm DNA, 5% glycerol, ~1 nM DNA, 30 min at 30 C; 6% PAGE Tris-glycine pH …
[3] = target: T1, LI integrase CTD; experiment: crystal structure (3.2 A); Zn2+ bound; 13 mM CaCl2 in drop; EMSA: 20 mM Tris-HCl pH 7.4, 150 mM KCl, 2 mM DTT, 25 ug/ml BSA, 25 ug/ml salmon sperm DNA, 5% glycerol, ~1 nM DNA, 30 min at 30 C; 6% PAGE Tris-glycine pH 8.3; conditions: protein: recombinant; tags: C-terminal His6 (LEH6); 5' overhangs 1 nt (G top, C bottom), 25 bp duplex

Molecule	Kd [1] [nM]	binding signal (fold weaker than WT) [2]	binding result [3]
LI attB 119-bp probe	20	25	
LI attP 119-bp probe	20	25	
A118 attP P-arm half-site (crystal) (dsDNA) DNA 1: GTTTAGTTCCTCGTTTTCTCTCGTTG DNA 2: CCAACGAGAGAAAACGAGGAACTAAA			binds
